This is an account of results in patent US20210190798A1 (AstraZeneca / MedImmune, published 2021).

B1: human LIF (Leukemia Inhibitory Factor), expression host not stated at the place of use (ligand)
chain: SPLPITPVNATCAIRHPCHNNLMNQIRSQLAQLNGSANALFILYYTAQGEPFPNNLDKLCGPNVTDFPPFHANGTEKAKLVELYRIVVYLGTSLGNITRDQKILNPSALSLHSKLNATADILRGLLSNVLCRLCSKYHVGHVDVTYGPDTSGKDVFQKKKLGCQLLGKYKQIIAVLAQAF
notes: species not repeated there) and for the cell assays with endogenous or added human LIF; also called hLIF; Bt-LIF

The target in one assay is T1, recombinant human gp130 (human, UniProt P40189 23-619, limits assumed).
T1 construct: Coated on ELISA plates
T1 sequence (looked up): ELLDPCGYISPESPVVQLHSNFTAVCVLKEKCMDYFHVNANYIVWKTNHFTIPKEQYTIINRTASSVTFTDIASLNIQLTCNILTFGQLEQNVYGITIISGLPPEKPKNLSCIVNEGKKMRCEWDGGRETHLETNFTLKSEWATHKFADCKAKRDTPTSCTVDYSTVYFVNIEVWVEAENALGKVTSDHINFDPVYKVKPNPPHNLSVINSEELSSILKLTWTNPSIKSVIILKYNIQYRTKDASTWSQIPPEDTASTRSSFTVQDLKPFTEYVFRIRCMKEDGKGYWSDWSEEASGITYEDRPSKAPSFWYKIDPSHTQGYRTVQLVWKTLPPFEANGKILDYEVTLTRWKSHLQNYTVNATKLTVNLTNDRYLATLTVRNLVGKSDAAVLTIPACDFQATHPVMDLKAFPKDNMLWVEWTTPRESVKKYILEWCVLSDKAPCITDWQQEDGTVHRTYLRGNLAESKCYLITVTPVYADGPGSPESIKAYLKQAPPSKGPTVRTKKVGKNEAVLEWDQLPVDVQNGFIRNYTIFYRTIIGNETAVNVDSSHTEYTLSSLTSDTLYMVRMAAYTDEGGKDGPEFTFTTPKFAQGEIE
As to the kind of experiment: ELISA: LIF pre-incubated with B09 and added to a gp130-coated plate; the mAb part is detected with anti-rat IgG-HRP. On the technique in general: In an ELISA, binding on a coated surface is turned into a signal by an enzyme label.

A further assay concerns the target T2, human IL-6 (E. coli) (human, UniProt P05231 30-212, limits assumed).
T2 construct: also called huIL-6 (E. coli)
Description: BLI (Octet), h5D8 amine-coupled on AR2G biosensor, cytokine as analyte. In general terms: Biolayer interferometry detects binding as a change in optical thickness at a sensor tip.

Assay [1] addresses T3, recombinant human LIFR (LIF receptor) (human, UniProt P42702 45-833, limits assumed).
T3 construct: Soluble analyte in the Octet assay and coated on ELISA plates; also called hLIFR
T3 sequence (looked up): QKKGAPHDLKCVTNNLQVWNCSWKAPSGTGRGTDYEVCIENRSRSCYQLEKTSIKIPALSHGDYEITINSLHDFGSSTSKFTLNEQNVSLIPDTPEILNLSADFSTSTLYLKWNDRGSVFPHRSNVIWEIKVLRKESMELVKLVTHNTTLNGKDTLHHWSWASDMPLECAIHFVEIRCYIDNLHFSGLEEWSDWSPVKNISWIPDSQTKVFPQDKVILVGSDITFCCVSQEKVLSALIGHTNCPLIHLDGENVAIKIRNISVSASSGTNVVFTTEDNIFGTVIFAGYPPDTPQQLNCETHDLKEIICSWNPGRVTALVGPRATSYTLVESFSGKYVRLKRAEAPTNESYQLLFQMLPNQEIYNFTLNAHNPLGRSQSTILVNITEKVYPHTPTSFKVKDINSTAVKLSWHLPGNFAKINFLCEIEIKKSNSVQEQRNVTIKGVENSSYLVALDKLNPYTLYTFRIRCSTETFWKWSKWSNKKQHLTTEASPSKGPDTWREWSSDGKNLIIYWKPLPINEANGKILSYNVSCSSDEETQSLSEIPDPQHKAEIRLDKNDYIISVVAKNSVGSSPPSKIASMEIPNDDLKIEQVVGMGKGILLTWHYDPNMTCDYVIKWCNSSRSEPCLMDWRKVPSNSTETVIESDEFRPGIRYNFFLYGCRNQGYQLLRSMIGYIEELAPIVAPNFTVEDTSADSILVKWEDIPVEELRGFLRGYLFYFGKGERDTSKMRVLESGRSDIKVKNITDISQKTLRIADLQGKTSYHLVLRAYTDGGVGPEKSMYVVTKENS
As to the kind of experiment: BLI (Octet RED 96), control experiment, h5D8 on AHC biosensor.

Assay [2] has as its target B1. Description: cell-based or functional assay.
Assay [3] deals with B1. Description: competitive binding assays against LIF.
In assay [4] the target is T4, human LIF (HEK-293) (human, UniProt P15018 23-202).
T4 construct: Bought recombinant glycosylated protein; also called hLIF (HEK 293); huLIF (mammalian)
T4 sequence (P15018 23-202 limits assumed): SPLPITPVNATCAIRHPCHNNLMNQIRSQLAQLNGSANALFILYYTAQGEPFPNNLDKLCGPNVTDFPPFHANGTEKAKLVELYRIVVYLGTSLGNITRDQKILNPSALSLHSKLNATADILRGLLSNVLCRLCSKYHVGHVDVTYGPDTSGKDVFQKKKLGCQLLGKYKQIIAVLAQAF
Description: MSD electrochemiluminescence sandwich assay (Example 23): A4 spot-coated as capture, Sulfo-Tag 7C3 (M017C3) as detection, rhLIF titrated with saturating h5D8.
Description: Quality controls and samples are transferred in triplicate to the coated and blocked MSD plate. […] The intensity quantified by the system is proportional to the amount of bound antibody complexes and is expressed as RLU (Relative Light Units).

Assay [5] addresses T4, human LIF (HEK-293). Description: MSD electrochemiluminescence sandwich assay: mAb 3 (chimeric rabbit/human A4) as capture antibody, LIF titrated; detection antibody not named in the figure (7C3 in Example 23).

T2 sequence (P05231 30-212 limits assumed): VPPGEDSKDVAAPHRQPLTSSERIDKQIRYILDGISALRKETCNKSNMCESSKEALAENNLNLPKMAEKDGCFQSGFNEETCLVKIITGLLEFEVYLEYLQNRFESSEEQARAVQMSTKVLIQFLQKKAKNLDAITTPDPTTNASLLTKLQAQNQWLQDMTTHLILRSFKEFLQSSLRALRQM
Description for human IL-6 (E. coli): 9.0.0.26 as follows: Amine Reactive 2ndGeneration Biosensors (AR2G) were hydrated for a minimum of 15 minutes in water. […] Kinetics experiments were then performed with the following Dip and Read steps at 30° C., 1000rpm: vi) 60 seconds Baseline in lx kinetics buffer; vii) 180 seconds Association of appropriate serial dilutions of a cytokine in lx kinetics buffer; viii) 300 seconds Dissociation in 1X kinetics buffer; ix) Three Regeneration/Neutralization cycles alternating between 10mM glycine pH 2.0 and lx kinetics buffer respectively (5 seconds in each for 3 cycles).

Take B1: the binding result with recombinant human gp130 is listed as “binds”.

B2: h5D8 (humanized 5D8 antibody comprising H2 and L2) (antibody, V domains shown)
VH: QVQLQESGGGLVKPGGSLRLSCAASGFTFSHAWMHWVRQAPGKGLEWVGQIKAKSDDYATYYAESVKGRFTISRDDSKNTLYLQMNSLKTEDTAVYYCTCWEWDLDFWGQGTMVTVSS
VL: DIVMTQTPLSSPVTLGQPASISCRSSQSLLDSDGHTYLNWLQQRPGQPPRLLIYSVSNLESGVPDRFSGSGAGTDFTLKISRVEAEDVGVYYCMQATHAPPYTFGQGTKLEIK
notes: also called H2L2; G (H2L2)
Consider B2, for which the binding result (with human IL-6 (E. coli); in assay [1]) was “no binding” each time. Further, the “IC50 for biological inhibition (pSTAT3, U-251 cells, serum starved)” value in assay [2] was determined as 490 picomolar.

B3: A4 (rabbit monoclonal anti-LIF capture antibody) (antibody, V domains shown)
VH: EQLEESVGDLVKPGASLTLTCTASGFSFSGLYYMCWVRQAPGKGLEWIACIWTGSTDSTYYATWAKGRFTISKTSSTTVTLQMTSLTVADTATYFCARGGGVPGDGYALWGPGTLVTVSS
VL: ELVMTQTPASVSEPVGGTVTINCQASEDISSNLVWYQQKSGQPPKLLIYDASMLASGVPSRFKGSGSGTQFTLTISDLECADGATYYCQSYYVASSSYFVNGFGGGTEVV
notes: Rabbit monoclonal antibody; also called capture antibody A4; rabbit A4 monoclonal capture antibody
With B3, the binding result (in assay [3]; with human LIF (HEK-293) [4]) was “binds” in each case.

B4: mAb 3 (antibody, V domains shown)
VH: EQLEESVGDLVKPGASLTLTCTASGFSFSGLYYMCWVRQAPGKGLEWIACIWTGSTDSTYYATWAKGRFTISKTSSTTVTLQMTSLTVADTATYFCARGGGVPGDGYALWGPGTLVTVSS
VL: ELVMTQTPASVSEPVGGTVTINCQASEDISSNLVWYQQKSGQPPKLLIYDASMLASGVPSRFKGSGSGTQFTLTISDLECADGATYYCQSYYVASSSYFVNGFGGGTEVV
notes: also called chimeric rabbit/human A4 antibody
For the molecule B4, in the assay with human LIF (HEK-293) [5], the binding result is reported as “binds”.
